Experimental data taken from patent US20200087364A1 (IMMATICS BIOTECHNOLOGIES, published 2020).

B1: ETDWGLLKGHTY (peptide)
peptide: ETDWGLLKGHTY
B2: YADIHGDLL (peptide)
peptide: YADIHGDLL
B3: SIEIDHTQY (peptide)
peptide: SIEIDHTQY
B4: GVGFTELEY (peptide)
peptide: GVGFTELEY
B5: LLPLLVMAY (peptide)
peptide: LLPLLVMAY
B6: YLESHGLAY (peptide)
peptide: YLESHGLAY
B7: NLDHYTNAY (peptide)
peptide: NLDHYTNAY
B8: LSDIDSRYI (peptide)
peptide: LSDIDSRYI
B9: DLKIDLAAQY (peptide)
peptide: DLKIDLAAQY
B10: GTNLPTLLW (peptide)
peptide: GTNLPTLLW
B11: DCMDTEGSYM (peptide)
peptide: DCMDTEGSYM
B12: LTDSFLLRF (peptide)
peptide: LTDSFLLRF
B13: LTSEDTGAY (peptide)
peptide: LTSEDTGAY
B14: VTKYIAGPY (peptide)
peptide: VTKYIAGPY
B15: YRDPVFVSL (peptide)
peptide: YRDPVFVSL
B16: VTDIDELGK (peptide)
peptide: VTDIDELGK
B17: CVIETFHKY (peptide)
peptide: CVIETFHKY
B18: APDEVVALL (peptide)
peptide: APDEVVALL
B19: WELDSLEY (peptide)
peptide: WELDSLEY
B20: HAFESNNFIY (peptide)
peptide: HAFESNNFIY
B21: MTDVFIDY (peptide)
peptide: MTDVFIDY
B22: FLFNDALLY (peptide)
peptide: FLFNDALLY
B23: GYVCNACGLY (peptide)
peptide: GYVCNACGLY
B24: KSFDDIAKY (peptide)
peptide: KSFDDIAKY
B25: SMIRVGTNY (peptide)
peptide: SMIRVGTNY
B26: LPSPAATIWDY (peptide)
peptide: LPSPAATIWDY
B27: GIEMTYETY (peptide)
peptide: GIEMTYETY
B28: AMMQEAQLAY (peptide)
peptide: AMMQEAQLAY
B29: IPQDECLRY (peptide)
peptide: IPQDECLRY
B30: RPSSVLTIY (peptide)
peptide: RPSSVLTIY
B31: ESAPKEVSRY (peptide)
peptide: ESAPKEVSRY
B32: MTEGSTVNTEY (peptide)
peptide: MTEGSTVNTEY
B33: VAEPPVVCSY (peptide)
peptide: VAEPPVVCSY
B34: CGPNEINHFY (peptide)
peptide: CGPNEINHFY
B35: IVADDTVY (peptide)
peptide: IVADDTVY
B36: AILHHLYFY (peptide)
peptide: AILHHLYFY
B37: LSDNAANRY (peptide)
peptide: LSDNAANRY
B38: RINSATGQY (peptide)
peptide: RINSATGQY
B39: PSEVPVDSHY (peptide)
peptide: PSEVPVDSHY
B40: KSEMNVNMKY (peptide)
peptide: KSEMNVNMKY
B41: AQEAAVFLTLY (peptide)
peptide: AQEAAVFLTLY
B42: QITPKHNGLY (peptide)
peptide: QITPKHNGLY
B43: RYLNIVHATQLY (peptide)
peptide: RYLNIVHATQLY
B44: ARLEGEIATY (peptide)
peptide: ARLEGEIATY
B45: SSERGSPIEKY (peptide)
peptide: SSERGSPIEKY
B46: YTDLTTIQV (peptide)
peptide: YTDLTTIQV
B47: SLMVASLTY (peptide)
peptide: SLMVASLTY
B48: DTTSHTYLQY (peptide)
peptide: DTTSHTYLQY
B49: KPTEDSANVY (peptide)
peptide: KPTEDSANVY
B50: VLDSLLAQY (peptide)
peptide: VLDSLLAQY
B51: ASDDFRSKY (peptide)
peptide: ASDDFRSKY
B52: NVKHFLNDLY (peptide)
peptide: NVKHFLNDLY
B53: DTDPLKAAGL (peptide)
peptide: DTDPLKAAGL
B54: EVLDSLLAQY (peptide)
peptide: EVLDSLLAQY

These binders were tested against T1, HLA-A*01:01 (human) (assay: UV-ligand exchange, anti-b2m ELISA).
T1 construct: MHC class I monomer first loaded with a UV-sensitive peptide (not identified) that is cleaved by UV irradiation and exchanged for the tested peptide; captured on streptavidin plates, detected with anti-β2m; also called peptide-receptive MHC molecules
Source text: Candidate peptides for T cell based therapies according to the present invention were further tested for their MHC binding capacity (affinity). The individual peptide-MHC complexes were produced by UV-ligand exchange, where a UV-sensitive peptide is cleaved upon UV-irradiation and exchanged with the peptide of interest as analyzed. Only peptide candidates that can effectively bind and stabilize the peptide-receptive MHC molecules prevent dissociation of the MHC complexes. To determine the yield of the exchange reaction, an ELISA was performed based on the detection of the light chain (β2m) of stabilized MHC complexes. The assay was performed as generally described in Rodenko et al. (Rodenko et al., 2006)
96 well MAXISorp plates (NUNC) were coated over night with 2 ug/ml streptavidin in PBS at room temperature, washed 4× and blocked for 1 h at 37° C. in 2% BSA containing blocking buffer. Refolded HLA-A*02:01/MLA-001 monomers served as standards, covering the range of 15-500 ng/ml. Peptide-MHC monomers of the UV-exchange reaction were diluted 100-fold in blocking buffer. Samples were incubated for 1 h at 37° C., washed four times, incubated with 2 ug/ml HRP conjugated anti-β2m for 1 h at 37° C., washed again and detected with TMB solution that is stopped with […]. Absorption was measured at 450 nm.
B1 gave a peptide exchange yield of over 75%. Binder B2 has a peptide exchange yield of 50 to 75%. B3 was tested, and the peptide exchange yield was 20 to 50%. Work on B4 yielded a peptide exchange yield of 50 to 75%. B5 showed a peptide exchange yield of 20 to 50%. In the case of B6, the peptide exchange yield is reported as over 75%. For B7, the peptide exchange yield was 50 to 75%. Work on B8 yielded a peptide exchange yield of 20 to 50%. Work on B9 yielded a peptide exchange yield of 20 to 50%. Binder B10 has a peptide exchange yield of 10 to 20%. With B11 the peptide exchange yield was 20 to 50%. B12 was tested, and the peptide exchange yield was over 75%. B13 gave a peptide exchange yield of 50 to 75%. With B14 the peptide exchange yield was 20 to 50%. With B15 the peptide exchange yield was 20 to 50%. For B16, the peptide exchange yield was 50 to 75%. B17 was tested, and the peptide exchange yield was 50 to 75%. For B18, the peptide exchange yield was 20 to 50%. In the case of B19, the peptide exchange yield is reported as 20 to 50%. B20 gave a peptide exchange yield of 20 to 50%. Binder B21 has a peptide exchange yield of 50 to 75%. Binder B22 has a peptide exchange yield of over 75%. With B23 the peptide exchange yield was 20 to 50%. Binder B24 has a peptide exchange yield of 20 to 50%. With B25 the peptide exchange yield was 20 to 50%. For B26, the peptide exchange yield was 50 to 75%. For B27, the peptide exchange yield was 20 to 50%. Work on B28 yielded a peptide exchange yield of 50 to 75%. B29 showed a peptide exchange yield of 50 to 75%. In the case of B30, the peptide exchange yield is reported as 50 to 75%. B31 gave a peptide exchange yield of 20 to 50%. In the case of B32, the peptide exchange yield is reported as over 75%. For B33, the peptide exchange yield was 20 to 50%. B34 showed a peptide exchange yield of 20 to 50%. In the case of B35, the peptide exchange yield is reported as 50 to 75%. With B36 the peptide exchange yield was 10 to 20%. B37 showed a peptide exchange yield of 50 to 75%. With B38 the peptide exchange yield was 20 to 50%. B39 was tested, and the peptide exchange yield was over 75%. For B40, the peptide exchange yield was over 75%. In the case of B41, the peptide exchange yield is reported as 50 to 75%. B42 was tested, and the peptide exchange yield was 20 to 50%. B43 gave a peptide exchange yield of 20 to 50%. Work on B44 yielded a peptide exchange yield of 20 to 50%. Binder B45 has a peptide exchange yield of 50 to 75%. Work on B46 yielded a peptide exchange yield of over 75%. B47 showed a peptide exchange yield of 20 to 50%. With B48 the peptide exchange yield was 20 to 50%. Work on B49 yielded a peptide exchange yield of 50 to 75%. In the case of B50, the peptide exchange yield is reported as over 75%. With B51 the peptide exchange yield was 50 to 75%. With B52 the peptide exchange yield was 50 to 75%. In the case of B53, the peptide exchange yield is reported as 10 to 20%. B54 showed a peptide exchange yield of 20 to 50%.
